According to patent US20260008865A1:

What was measured:
[1] = biological target: SelSP1 (PSGL-1 sulfopeptide); assay: SPR (SensiQ Pioneer), antibody captured on Protein G, SelSP1 as analyte, 25 °C, 1:1 model
[2] = biological target: SelSP1 (PSGL-1 sulfopeptide); assay: SPR; SelSP1 surface (FC2) blocked with 40 µg/mL antibody, then 990 nM CCL27 as competitor; Rep. 1
[3] = biological target: SelSP1 (PSGL-1 sulfopeptide); assay: SPR; SelSP1 surface (FC2) blocked with 40 µg/mL antibody, then 990 nM CCL27 as competitor; Rep. 2
[4] = biological target: SelSP1 (PSGL-1 sulfopeptide); assay: SPR; SelSP1 surface (FC2) blocked with 40 µg/mL antibody, then 990 nM CCL27 as competitor; Rep. 3
[5] = biological target: SelSP1 (PSGL-1 sulfopeptide); assay: SPR; SelSP1 surface (FC3) blocked with 40 µg/mL antibody, then 990 nM CCL27 as competitor; Rep. 1
[6] = biological target: SelSP1 (PSGL-1 sulfopeptide); assay: SPR; SelSP1 surface (FC3) blocked with 40 µg/mL antibody, then 990 nM CCL27 as competitor; Rep. 2
[7] = biological target: SelSP1 (PSGL-1 sulfopeptide); assay: SPR; SelSP1 surface (FC3) blocked with 40 µg/mL antibody, then 990 nM CCL27 as competitor; Rep. 3
[8] = biological target: SelSP1 (PSGL-1 sulfopeptide); assay: SPR; SelSP1 surface blocked with 40 µg/mL antibody, then 990 nM CCL27 as competitor; average over FC2 and FC3 replicates
[9] = biological target: SelSP1 (PSGL-1 sulfopeptide); assay: SPR; summary sentence in the description; target printed as PSGL-1, but the worked example used the PSGL-1 sulfopeptide SelSP1

Kd [1]: 16.4 nM
koff [1]: 0.00497 s⁻¹
kon [1]: 303000 M⁻¹ s⁻¹
Percent CCL27 Inhibition [2]: 57.1%
Percent CCL27 Inhibition [3]: 50.6%
Percent CCL27 Inhibition [4]: 53.5%
Percent CCL27 Inhibition [5]: 50.5%
Percent CCL27 Inhibition [6]: 43.1%
Percent CCL27 Inhibition [7]: 47%
Percent CCL27 Inhibition (Avg.) [8]: 50%
Kd [9]: 16.6 nM
B1: Parental antibody (antibody, V domains shown)
VH: DVQLVESGGGLVQPGGSRKLSCAASGFTFSSFGMHWVRQAPEKGLEWVAYISSASSTIYYADTVKGRFTISRDNPKNTLFLQMTSLRSEDTAMYYCASSYGYWGQGTTLTVSS
VL: DVVMTQTPLSLPVSLGDQASISCRSSRSLVHSNGNTYLHWYLQKPGQSPQLLIYKVSNRFSGVPDRFSGSGSGTDFTLKISRVEAEDLGVYFCSQTTHVPLTFGAGTRLELKR
